Where no end group is shown, it is not given here. The star is where a group is joined. FITC = O=C1OC2(c3ccc(O)cc3Oc3cc(O)ccc32)c2ccc(NC(=S)*)cc21; Ahx = NCCCCCC(=O)O
B2: FITC-labeled peptide corresponding to residues 699–729 of BAP1 (peptide)
peptide: {FITC-Ahx}-RRRQGVSIGRLHKQRKPDRRKRSRPYKAKRQ

Key:
Test in all cases: fluorescence polarisation
[1] = target: FITC-labeled peptide corresponding to residues 699–729 of BAP1 (human)
[2] = target: B2
[3] = target: Importin α5 (KPNA1), residues 66–512, without the IBB domain (UniProt P52294 66-512)
Chain of Importin α5 (KPNA1), residues 66–512, without the IBB domain (P52294 66-512): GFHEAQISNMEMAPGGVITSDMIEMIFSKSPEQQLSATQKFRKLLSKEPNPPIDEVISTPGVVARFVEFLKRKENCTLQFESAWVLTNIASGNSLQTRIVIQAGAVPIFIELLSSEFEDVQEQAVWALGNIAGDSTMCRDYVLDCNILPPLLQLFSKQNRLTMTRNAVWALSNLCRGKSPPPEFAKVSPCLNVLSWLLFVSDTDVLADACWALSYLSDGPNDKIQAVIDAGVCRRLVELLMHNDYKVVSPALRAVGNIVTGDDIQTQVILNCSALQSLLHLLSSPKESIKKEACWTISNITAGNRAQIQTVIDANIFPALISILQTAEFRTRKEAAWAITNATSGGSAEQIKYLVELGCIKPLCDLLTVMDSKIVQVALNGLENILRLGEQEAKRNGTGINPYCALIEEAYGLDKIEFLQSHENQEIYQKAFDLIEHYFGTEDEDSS

Importin α1 (KPNA2), residues 60–529, without the IBB domain (from UniProt P52292 60-529) (domain or fragment)
Kd [1]: > 7200 nM

B1: Transportin-1 (TNPO1) with the acidic loop (residues 337–367) replaced by a GGSGGSG linker (natural protein)
chain: MEYEWKPDEQGLQQILQLLKESQSPDTTIQRTVQQKLEQLNQYPDFNNYLIFVLTKLKSEDEPTRSLSGLILKNNVKAHFQNFPNGVTDFIKSECLNNIGDSSPLIRATVGILITTIASKGELQNWPDLLPKLCSLLDSEDYNTCEGAFGALQKICEDSAEILDSDVLDRPLNIMIPKFLQFFKHSSPKIRSHAVACVNQFIISRTQALMLHIDSFIENLFALAGDEEPEVRKNVCRALVMLLEVRMDRLLPHMHNIVEYMLQRTQDQDENVALEACEFWLTLAEQPICKDVLVRHLPKLIPVLVNGMKYSDIDIILLKGDVEEDETIPDSEQDIRGGSGGSGDTISDWNLRKCSAAALDVLANVYRDELLPHILPLLKELLFHHEWVVKESGILVLGAIAEGCMQGMIPYLPELIPHLIQCLSDKKALVRSITCWTLSRYAHWVVSQPPDTYLKPLMTELLKRILDSNKRVQEAACSAFATLEEEACTELVPYLAYILDTLVFAFSKYQHKNLLILYDAIGTLADSVGHHLNKPEYIQMLMPPLIQKWNMLKDEDKDLFPLLECLSSVATALQSGFLPYCEPVYQRCVNLVQKTLAQAMLNNAQPDQYEAPDKDFMIVALDLLSGLAEGLGGNIEQLVARSNILTLMYQCMQDKMPEVRQSSFALLGDLTKACFQHVKPCIADFMPILGTNLNPEFISVCNNATWAIGEISIQMGIEMQPYIPMVLHQLVEIINRPNTPKTLLENTAITIGRLGYVCPQEVAPMLQQFIRPWCTSLRNIRDNEEKDSAFRGICTMISVNPSGVIQDFIFFCDAVASWINPKDDLRDMFCKILHGFKNQVGDENWRRFSDQFPLPLKERLAAFYGV
Kd [2]: 19.6 nM

B2
Kd [3]: 670 nM

From PMC9036092 (The Journal of Cell Biology, 2022)
